Assay results published in patent US20170267762A1 (APOLLOMICS, published 2017).
Each block holds one binder with its values, some of them ahead of it.

What was measured:
[1] = target: T1, human PD-1 on cells (293T cells transfected with human PD-1) (human, UniProt Q15116 25-288); test: FACS on hPD-1-293T cells
T1 construct: whole, on cells; Also used as the target for the functional rows, where PD-1 stands on human T cells
Procedure: (§1) The cells were incubated with the indicated antibody (20 ug/ml with the dilution of ⅕) at 4° C. for 1 h. Cells were washed three times with FACS buffer. A secondary antibody (PE Goat anti-mouse: 1:200; PE mouse anti-human: 1:10) was added to the cells at 100 ul/well, and incubated at 4° C. for 40min. Cells were washed three times with FACS buffer and analyzed by FACS Array.
(§2) The purified hybridoma antibodies were characterized further based on ELISA and FACS analyses.

[2] = target: T2, human PD-1 (construct not stated) (human, UniProt Q15116 25-167, limits assumed); test: Biacore (summary table; unit from Table 7)
T2 construct: also called PD-1 analyte
Procedure: (§3) To further characterize the binding characteristics of the antibodies, 10 hybridoma antibodies were profiled using Biacore (Biacore 3000, GE) to elucidate binding kinetics and calculate equilibrium binding constants. This assay was performed by capture method, using the mouse antibody capture kit (BR-1008-38, GE). After diluting anti-mouse Fc mab to 25 μg/ml in pH 5.0 immobilization buffer, immobilization was conducted with the parameters shown in Table 6 at a flow rate of 5 μl/min. The kinetic runs were done by 1) injecting ligand for typical 0.5-1 min at flow rate of 10 μl/min.; 2) injecting analytes of choice for typical 3 min followed by dissociation in running buffer (1× PBS-P20) for typical 5-10 min at flow rate of 30 μl/min.; and 3) injecting regeneration solution 10 mM Glycine pH1.7 for typical 1-2 min at flow rate of 10 μl/min.

[3] = target: T3, human ICOS (human, UniProt Q9Y6W8 21-140, limits assumed); test: Interaction with CTLA4, ICOS CD28; assay not detailed
T3 sequence (looked up): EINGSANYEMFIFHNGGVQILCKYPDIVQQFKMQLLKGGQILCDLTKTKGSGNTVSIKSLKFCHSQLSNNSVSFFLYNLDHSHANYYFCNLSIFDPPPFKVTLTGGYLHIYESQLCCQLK

[4] = target: T4, human CTLA4 (human, UniProt P16410 36-161, limits assumed); test: as above
T4 sequence (looked up): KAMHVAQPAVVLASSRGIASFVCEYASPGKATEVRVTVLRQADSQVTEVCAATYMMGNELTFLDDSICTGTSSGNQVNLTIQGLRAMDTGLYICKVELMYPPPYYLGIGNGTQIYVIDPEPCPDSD

[5] = target: human CD28 (human, UniProt P10747 19-152, limits assumed); test: as above
[6] = target: T2, human PD-1 (construct not stated); test: Biacore, antibody captured, PD-1 analyte
Procedure: as §3

[7] = target: T5, human PD-1 extracellular domain fused with mouse Fc (PD-1-mFc) (human, UniProt Q15116 25-170); test: blockage ELISA, coated PD-1-mFc, competitor PDL-1-mFc-biotin
T5 construct: extracellular domain; not used because of the label; also called hPD-1-mFc; human PD-1-mouse Fc fusion protein
Procedure: (§4) PD-1-mFc antigen (CrownBio) was suspended in PBS (Hyclone,Cat No:SH30256.01B) buffer (2 ug/ml, 100 ul/ well) and coated on the 96 well plate (costar, Cat No.:9018) 4° C. overnight. Plates were washed 3 times using washing buffer: PBS+0.05% Tween 20(Sigma, Cat No.:P1379). 200 ul of blocking buffer (PBS+1%BSA(Roche, Cat No.:738328)), was added to each well, incubated at 37° C. for 1 hour, and washed 3 times. Various concentrations (suitable dilutions of hybridoma supernatant in PBS) of the anti-PD-1 Abs were added to the wells (100 μl/well) and incubated at 37° C. for 1 hour. […] Secondary antibody (Avidin HRP eBioscience cat No.:E07418-1632, 1:500, 100 ul/well) was added, incubated at 37 ° C. for 0.5 hour, and washed 3 times. TMB (Sigma, Cat No.: T0440, 100 ul/well) was added, and incubated for 3 min at RT. To stop the reaction, 2N H2SO4 (100 ul/well), was added. The colorimetric signals were developed and read at 450 nm using a Auto Plate SpectraMax Plus (Supplier: Molecular Devices; Model: MNR0643; Software: SoftMax Pro v5.4).
as §2

[8] = target: T6, human PD-1 extracellular domain fused with human Fc tag (hPD-1-hFc) (human); test: ELISA binding (summary table)
T6 construct: also called human PD-1-hFc
Procedure: (§5) ELISA binding analysis was conducted based on human PD-1-hFc Protein. 96-well plates (Costar, Cat No:9018) were coated with 100 μL of 2 μg/ml PD1-hFc (CrownBio) in coating buffer (PBS, Hyclone, Cat No:SH30256.01B) overnight at 4° C. The wells were aspirated and non-specific binding sites were blocked by adding 200 μL of blocking buffer with 1% (w/v) of bovine serum albumin (BSA, Roche, Cat No: 738328) and incubating for 1 hour at 37° C. After the plates are washed three times with wash buffer (PBS with 0.05%(v/v) Tween20 (Sigma, Cat No:P1379), 100 μL/well of a suitable dilutions of hybridoma supernatant in blocking buffer were added and incubated at room temperature for 1 hour. The plates were washed and incubated with 100 μL/well of Goat anti-Mouse IgG (H+L) (Thermo, Cat No: 31432) in blocking buffer for 60 min. After the plates were washed, 100 μL/well of substrate solution (TMB(eBioscience, Cat No:00-4201-56) was added and the plates were incubated for 2min at room temperature. 100 μL/well of stop solution (2N H2SO4) was added to stop the reaction. The colorimetric signals were developed and read at 450 nm using a Auto Plate SpectraMax Plus (Supplier: Molecular Devices; Model: MNR0643; Software: SoftMax Pro v5.4).
as §2

[9] = target: T5, human PD-1 extracellular domain fused …; test: blockage ELISA, competitor PDL-1-mFc-biotin (summary table; IC50 in ng/ml in Table 2)
Procedure: as §4

[10] = target: T1, human PD-1 on cells (293T cells …); test: FACS blockage on hPD-1-293T cells, competitor biotin PD-L1
Procedure: (§6) Various concentrations of the testing hybridoma antibodies were added to the cell suspension and incubated at 4° C. for 60 minutes in 96 well plates. […] Plates were washed 3 times, and mouse anti-biotin PE antibody (Biolgend, cat# 409004) was added. Flow cytometric analyses were performed using a FACS Array.
as §2

[11] = target: T7, mouse PD-1 (mouse, UniProt Q02242 25-169, limits assumed); test: assays not detailed
T7 sequence (looked up): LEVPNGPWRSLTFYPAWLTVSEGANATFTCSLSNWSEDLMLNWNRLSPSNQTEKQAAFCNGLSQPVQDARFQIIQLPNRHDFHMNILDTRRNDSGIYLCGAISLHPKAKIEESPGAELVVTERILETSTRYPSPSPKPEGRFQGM

[12] = target: T1, human PD-1 on cells (293T cells …); test: FACS blockage on hPD-1-293T cells, competitor biotin PD-L2
Procedure: as §6, §2

[13] = target: T6, human PD-1 extracellular domain fused …; test: ELISA on coated PD1-hFc
Procedure: as §5, §2

[14] = target: T5, human PD-1 extracellular domain fused …; test: ELISA ligand blockage: biotinylated PD-L1-mFc binding to plate-bound PD-1, OD450 (methods similar to Example 2: PD-1-mFc coated)
Procedure: as §4

[15] = target: T1, human PD-1 on cells (293T cells …); test: FACS ligand blockage: biotin-labeled PD-L1 binding to 293T cells expressing human PD-1, MFI
Procedure: as §6

[16] = target: T2, human PD-1 (construct not stated); test: SPR (Biacore 3000), antibody captured on the chip, PD-1 as analyte, 1:1 Langmuir fit
Procedure: To characterize the binding characteristics of the humanized antibodies, the binding kinetics between PD-1 and PD-1 antibodies were measured by Biacore3000 and recorded with a data collection rate of 1 Hz. The polyclonal rabbit anti-mouse IgG (GE, BR-1008-38) was diluted with 10 mM pH 5.0 sodium acetate and immobilized onto reference and experiment flow cells of a CMS biosensor chip to around 15000 RU using an amine coupling kit (GE, BR10050). In the beginning of each cycle, diluted test antibody (1.5 μg/mL) was injected over experiment flow cell for 1 minute to be captured. PD-1 analyte series were prepared by diluting the stocks with running buffer to 100nM followed by 2× serial dilution in the same buffer down to 0.78nM. Analytes were injected in series over the reference and experiment flow cells for 3 minutes at a flow rate of 30 μL/minute. Then running buffer (PBS with 0.05% P20) was allowed to flow over for 10 minutes at a flow rate of 30 μL/minute. At the end of each cycle, the biosensor surface was regenerated with 3 minutes injection of 10 mM pH1.7 Glycine-HC1 buffer at a flow rate of 10 μL/minute. For each analyte sample injection (i.e. each cycle), binding responses obtained from the experimental biosensor surface were double referenced by subtracting simultaneously recorded responses from the reference surface followed by additional subtraction of responses from a single referenced running buffer sample. The association and dissociation rate constants (ka and kd) were determined simultaneously by fitting double-referenced sensorgrams of the entire titration series to Langmuir model (1:1) using Biaevaluation 4.0 software. The dissociation constant, KD, was calculated from the determined rate constants by the relation KD =kd/ka. […] The Biocore binding curves are shown in FIGS. 10 and 17A, top panel, and the quantified binding data are summarized in FIGS. 10 and 17A, bottom panel.

[17] = target: T1, human PD-1 on cells (293T cells …); test: FACS binding to 293T cells expressing human PD-1, MFI
Procedure: as §1

[18] = target: T6, human PD-1 extracellular domain fused …; test: ELISA binding to plate-bound PD-1, OD450 (methods similar to Example 2: plate coated with PD1-hFc)
Procedure: as §5

T1 sequence (Q15116 25-288): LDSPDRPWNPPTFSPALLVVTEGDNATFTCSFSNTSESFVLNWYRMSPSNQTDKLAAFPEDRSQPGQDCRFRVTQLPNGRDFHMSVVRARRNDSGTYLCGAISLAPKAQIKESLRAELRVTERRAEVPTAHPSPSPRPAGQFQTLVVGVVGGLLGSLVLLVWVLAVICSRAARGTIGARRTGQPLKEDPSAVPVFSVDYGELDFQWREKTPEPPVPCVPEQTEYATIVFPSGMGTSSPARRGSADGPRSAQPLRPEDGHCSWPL
T2 sequence (Q15116 25-167 limits assumed): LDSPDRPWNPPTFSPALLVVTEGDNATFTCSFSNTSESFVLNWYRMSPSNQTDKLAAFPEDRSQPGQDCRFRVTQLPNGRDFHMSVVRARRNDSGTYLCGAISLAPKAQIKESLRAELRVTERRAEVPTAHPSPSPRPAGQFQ
T5 sequence (Q15116 25-170): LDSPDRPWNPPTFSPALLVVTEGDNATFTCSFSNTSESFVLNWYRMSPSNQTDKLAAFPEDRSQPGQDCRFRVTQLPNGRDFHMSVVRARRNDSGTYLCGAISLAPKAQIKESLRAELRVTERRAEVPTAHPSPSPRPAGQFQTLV
T6 sequence (chain, as listed by the source limits assumed): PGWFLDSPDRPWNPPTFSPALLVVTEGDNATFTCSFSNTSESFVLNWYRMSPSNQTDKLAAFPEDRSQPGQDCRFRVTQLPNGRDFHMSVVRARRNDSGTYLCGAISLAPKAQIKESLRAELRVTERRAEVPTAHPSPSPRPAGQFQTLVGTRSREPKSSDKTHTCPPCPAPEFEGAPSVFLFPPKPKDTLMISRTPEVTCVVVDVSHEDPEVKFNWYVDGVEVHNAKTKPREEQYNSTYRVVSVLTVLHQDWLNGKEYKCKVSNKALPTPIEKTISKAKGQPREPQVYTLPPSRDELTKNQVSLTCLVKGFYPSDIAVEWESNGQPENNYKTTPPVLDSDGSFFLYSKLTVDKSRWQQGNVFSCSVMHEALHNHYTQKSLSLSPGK
human CD28, sequence (P10747 19-152 limits assumed): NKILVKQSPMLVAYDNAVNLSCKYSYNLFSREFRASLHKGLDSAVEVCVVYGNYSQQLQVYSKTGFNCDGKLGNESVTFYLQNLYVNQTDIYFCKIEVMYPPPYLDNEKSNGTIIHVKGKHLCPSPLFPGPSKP

B2: 4C10 murine anti-PD-1 antibody (antibody, V domains shown)
VH: QVQLKQSGPGLVQPSQNLSVTCTVSGFSLTTYGVHWVRQSPGKGLEWLGVIWSGGSTDYNAAFISRLTISKDNARSQVFFKMNSLQVNDTAMYYCAREKSVYGNYVGAMDYWGQGTSVTVSS
VL: SIVMTQTPKFLLVSAGDRVTITCKASQSVSDDVAWYQQKPGQSPKLLIYYAFNRYTGVPDRFTGSGYGTDFTFTISTVQSEDLAVYFCQQDYRSPWTFGGGTKLEIKR
notes: Purified hybridoma antibody; also called 4C10-mIgG1
EC50 [1]: 0.109 µg/mL | Kd [2]: 0.0332 nM | binding result [3]: no binding | binding result [4]: no binding | binding result [5]: no binding | Ka [6]: 3.01e+10 M⁻¹ | Kd [6]: 0.0332 nM | koff [6]: 2.63e-05 s⁻¹ | kon [6]: 791000 M⁻¹ s⁻¹ | IC50 [7]: 1.46 µg/mL | EC50 [8]: 0.0132 µg/mL | IC50 [9]: 1.46 µg/mL | IC50 [10]: 0.0833 µg/mL | binding result [11]: no binding | IC50 [12]: 0.251 µg/mL | EC50 [13]: 0.0132 µg/mL

B4: humanized 13F1-hIgG1 (antibody)
heavy: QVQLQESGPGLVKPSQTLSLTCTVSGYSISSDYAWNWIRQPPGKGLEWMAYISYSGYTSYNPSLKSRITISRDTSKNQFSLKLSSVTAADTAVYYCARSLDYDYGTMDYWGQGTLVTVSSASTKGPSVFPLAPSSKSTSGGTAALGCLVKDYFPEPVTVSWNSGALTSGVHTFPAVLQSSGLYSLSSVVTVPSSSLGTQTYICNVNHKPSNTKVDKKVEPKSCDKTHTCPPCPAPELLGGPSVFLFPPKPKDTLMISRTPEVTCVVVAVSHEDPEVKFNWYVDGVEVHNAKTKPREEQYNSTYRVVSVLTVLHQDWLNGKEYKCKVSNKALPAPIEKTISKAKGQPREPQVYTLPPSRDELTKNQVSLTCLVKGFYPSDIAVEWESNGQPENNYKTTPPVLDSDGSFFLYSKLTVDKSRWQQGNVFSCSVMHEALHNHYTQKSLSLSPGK
light: EIVLTQSPATLSLSPGERATLSCRANSSVSSMHWYQQKPGQSPEPWIYAISNLAFGVPARFSGSGSGTDYTLTISSLEPEDFAVYYCQQWSSRPPTFGQGTKLEIKRTVAAPSVFIFPPSDEQLKSGTASVVCLLNNFYPREAKVQWKVDNALQSGNSQESVTEQDSKDSTYSLSSTLTLSKADYEKHKVYACEVTHQGLSSPVTKSFNRGEC
notes: IgG1 constant region with D265A, already in the entry; also called h13F1-IgG1; hu-13F1-hIgG1
IC50 [14]: 0.985 µg/mL | IC50 [15]: 0.0295 µg/mL | EC50 [17]: 0.0668 µg/mL | EC50 [18]: 0.0357 µg/mL

Second part, the binder after the results:

EC50 [1]: 0.0527 µg/mL | Kd [2]: 0.0249 nM | binding result [3]: no binding | binding result [4]: no binding | binding result [5]: no binding | Ka [6]: 4.02e+10 M⁻¹ | Kd [6]: 0.0249 nM | koff [6]: 2.83e-05 s⁻¹ | kon [6]: 1.14e+06 M⁻¹ s⁻¹ | IC50 [7]: 0.982 µg/mL | EC50 [8]: 0.0244 µg/mL | IC50 [9]: 0.982 µg/mL | IC50 [10]: 0.038 µg/mL | binding result [11]: no binding | IC50 [12]: 0.141 µg/mL | EC50 [13]: 0.0244 µg/mL
B1: 7D3 murine anti-PD-1 antibody (antibody, V domains shown)
VH: EVKLVESGGGLVKPGGSLKLSCGASGFTFSSYGMSWVRQTPEKRLEWVATISGGGRDIYYPDSVKGRLTISRDNAKNNLYLQMSSLRSEDTALYYCVRQYYDDWFAYWGQGTLVTVSA
VL: DIVLTQSPATLSVTPGDSVSLSCRASQSISNDLHWYQQKSHESPRLLIKYVSQSISGIPSRFSGSGSGTDFTLSINSVETEDFGMYFCQQSDSWPLTFGAGTKLELKR
notes: Purified hybridoma antibody; also called 7D3-mIgG1

IC50 [14]: 0.579 µg/mL | IC50 [15]: 0.026 µg/mL | Ka [16]: 5.78e+09 M⁻¹ | Kd [16]: 0.173 nM | koff [16]: 0.000119 s⁻¹ | kon [16]: 687000 M⁻¹ s⁻¹ | EC50 [17]: 0.0763 µg/mL | EC50 [18]: 0.031 µg/mL
B3: humanized 13F1-hIgG4 (antibody)
heavy: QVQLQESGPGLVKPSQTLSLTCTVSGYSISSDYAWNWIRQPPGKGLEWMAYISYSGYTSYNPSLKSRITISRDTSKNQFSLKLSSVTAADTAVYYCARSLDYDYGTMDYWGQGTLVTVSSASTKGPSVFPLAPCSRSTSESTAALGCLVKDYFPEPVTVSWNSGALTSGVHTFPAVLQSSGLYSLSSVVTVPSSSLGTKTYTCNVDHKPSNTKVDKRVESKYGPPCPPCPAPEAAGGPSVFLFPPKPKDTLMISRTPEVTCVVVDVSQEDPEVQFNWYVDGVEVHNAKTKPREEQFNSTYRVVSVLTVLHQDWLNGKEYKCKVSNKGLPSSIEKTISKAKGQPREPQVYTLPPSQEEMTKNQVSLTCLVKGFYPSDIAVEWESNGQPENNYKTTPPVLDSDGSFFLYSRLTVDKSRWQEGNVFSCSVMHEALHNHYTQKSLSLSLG
light: B4 light
notes: IgG4 constant region with F234A and L235A, already in the entry; also called h13F1-IgG4; hu-13F1-hIgG4
